Experimental data from publication PMC11829585.

Target: T1, HuNoV GII.2 VLP (Human norovirus GII.2, UniProt A0A291L9K1 1-542)
T1 sequence: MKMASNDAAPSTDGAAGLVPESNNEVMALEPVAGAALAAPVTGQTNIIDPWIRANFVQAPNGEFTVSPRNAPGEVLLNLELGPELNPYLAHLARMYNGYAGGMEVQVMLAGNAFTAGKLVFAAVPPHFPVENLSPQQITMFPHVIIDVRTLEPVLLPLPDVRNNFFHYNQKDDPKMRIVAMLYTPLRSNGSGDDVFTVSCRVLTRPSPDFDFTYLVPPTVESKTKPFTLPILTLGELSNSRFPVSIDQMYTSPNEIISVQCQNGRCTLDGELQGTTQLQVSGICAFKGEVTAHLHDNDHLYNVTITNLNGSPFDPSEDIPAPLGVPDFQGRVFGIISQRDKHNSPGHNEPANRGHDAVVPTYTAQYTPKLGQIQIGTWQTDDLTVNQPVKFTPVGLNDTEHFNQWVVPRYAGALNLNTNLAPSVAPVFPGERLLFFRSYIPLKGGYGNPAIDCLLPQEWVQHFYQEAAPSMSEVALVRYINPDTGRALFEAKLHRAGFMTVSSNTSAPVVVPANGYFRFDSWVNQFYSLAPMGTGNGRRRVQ
Experiment: dot blot

## GGAACACGACCCGTCTGTGGCCATCACAGTACAGCATCGTCGTG (ssDNA) [AP17-4]
  binding result: binds

## AACACGACAACCCTGTGACCAACGAACCACACCAAAGTGGGC (ssDNA) [AP4-2]
  binding result: binds
